A short description of this data set: protein stability index of a GFP-peptide fusion (GPS, HEK-293T) (PSI 1-6); higher = more stable. To be noted: c terminus: a fixed tail appended.

± gives the standard deviation.
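Further: 24-mer peptide tiles fused after GFP, lentivirally expressed, FACS-sorted into six equal bins by GFP/DsRed ratio, decoded by Illumina sequencing, PSI is the read-weighted mean bin number.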

Take RQQGNPGHRSIYLALKLPDGSYAL [ADAMTS4]: the protein stability index amounted to 2.04 ± 0.23 (treatment: DMSO) and 2.2 ± 0.33 (treatment: MLN4924 1 uM, 8 h).
The corresponding values for SEELLSLKYENDYPSVILRDPLQT [ETS1] are 4.05 ± 0.14 and 4.14 ± 0.13.
The corresponding values for PHSAKTEEHTTILRPSYTGLSSSS [CDC14A] are 4.4 ± 0.33 and 4.58 ± 0.2.
For LASLPLKADTKGFCNISLFEDLPL [PLAGL1], the protein stability index reads like this: (treatment: DMSO) 2.33 ± 0.19; (treatment: MLN4924 1 uM, 8 h) 2.43 ± 0.1.
In turn, GVPQIWEKIHEMVKKNSAKSMGLK [ACSBG2] yielded a protein stability index (treatment: DMSO) of 2.09 ± 0.21 and a protein stability index (treatment: MLN4924 1 uM, 8 h) of 2.53 ± 0.046.
Turning to GRCLEVEMSKDANFGLRLVVQRCS [GALNT9], the protein stability index was determined as 2.27 ± 0.15 (treatment: DMSO) and 2 ± 0.41 (treatment: MLN4924 1 uM, 8 h).
Take ESRYTSDYFISYGIEHAQCVPPSE [ETS1]: the protein stability index (treatment: DMSO) is 3.22 ± 0.29 and the protein stability index (treatment: MLN4924 1 uM, 8 h) was found to be 3.5 ± 0.53.
For SLISLSNNTGKNLELKFVSSLRRQ [TENT5D], the protein stability index runs as follows: (treatment: DMSO) 2.34 ± 0.081; (treatment: MLN4924 1 uM, 8 h) 2.58 ± 0.098.
For AEREALQARLRDVSRREGALGWAP [ZBED3] the same measures were 4.04 ± 0.13 and 3.92 ± 0.17.
Take PPSARHRAHPPQRPASSGGAHTLV [KCNA3]: the protein stability index reads like this: (treatment: DMSO) 4.06 ± 0.42; (treatment: MLN4924 1 uM, 8 h) 4.1 ± 0.45.
As to SSSPASVTTEQLGAKMTERGSVAR [PXN], the protein stability index runs as follows: (treatment: DMSO) 4.86 ± 0.42; (treatment: MLN4924 1 uM, 8 h) 4.76 ± 0.59.
As to KLPLPSTLRSHLKSFSMAKGLNAR [RAB40A], the protein stability index (treatment: DMSO) amounted to 2.56 ± 0.18 and the protein stability index (treatment: MLN4924 1 uM, 8 h) came to 2.68 ± 0.15.
For the sequence NGRACEMNGEECAEDLRMLDASGE [IKZF1], the protein stability index (treatment: DMSO) was 5.07 ± 0.51 and the protein stability index (treatment: MLN4924 1 uM, 8 h) came to 5.36 ± 0.53.
On to DEIENLLDSDHRELIGDYSKAFLL [CDC25B], for which the protein stability index was determined as 3.55 ± 0.36 (treatment: DMSO) and 3.41 ± 0.53 (treatment: MLN4924 1 uM, 8 h).
As for ALCATDVKFISNPPSMVAAGSVVA [CCND1], the protein stability index is, setting by setting: (treatment: DMSO) 2.86 ± 0.28; (treatment: MLN4924 1 uM, 8 h) 3 ± 0.23.
For KLVVHDCPVWDIFDSDWYTSRNLI [RHOBTB3], the protein stability index by setting is: (treatment: DMSO) 2.62 ± 0.43; (treatment: MLN4924 1 uM, 8 h) 2.66 ± 0.18.
For IETSALDSTNVEEAFKNILTEIYR [RAB11B], the protein stability index by setting is: (treatment: DMSO) 2.41 ± 0.14; (treatment: MLN4924 1 uM, 8 h) 2.79 ± 0.29.
As for VRDMMANFHLNDLEAPHEDDAEGE [TCF25], the protein stability index runs as follows: (treatment: DMSO) 5.48 ± 0.13; (treatment: MLN4924 1 uM, 8 h) 5.3 ± 0.31.
As to EGLLNTYQELLGLSFEQMTDAHVW [NLN], the protein stability index (treatment: DMSO) worked out at 2.41 ± 0.32 and the protein stability index (treatment: MLN4924 1 uM, 8 h) was determined as 2.49 ± 0.38.
Turning to VKVPTTLAEYCIKTKVPSNDNSSD [UBE2R2], the protein stability index is, setting by setting: (treatment: DMSO) 4.41 ± 0.21; (treatment: MLN4924 1 uM, 8 h) 4.63 ± 0.17.
In the case of MAAEIHSRPQSSRPVLLSKIEGHQ [WDFY1], the protein stability index (treatment: DMSO) stood at 3.84 ± 0.13 and the protein stability index (treatment: MLN4924 1 uM, 8 h) came to 3.88 ± 0.23.
Consider LRIPFPRDCGEEMQNGAGASRTST [TNXB], for which the protein stability index is, setting by setting: (treatment: DMSO) 4.02 ± 0.45; (treatment: MLN4924 1 uM, 8 h) 4.28 ± 0.79.
Turning to ALVRLRETEEMLGKKQEYLENRIQ [CHMP4C], the protein stability index was 3.02 ± 0.46 (treatment: DMSO) and 3.35 ± 0.2 (treatment: MLN4924 1 uM, 8 h).
The corresponding values for NPIGHLPESLTKPDQVAPFTFLQP [ATF4] are 3.56 ± 0.11 and 3.8 ± 0.49.
The corresponding values for LGSYKAQKTSRSSSIPCSGSLDGR [PPEF2] are 4.177 ± 0.013 and 4.43 ± 0.14.
Turning to KADTLKERYQKIGDTKRATPIEVL [CSNK1G3], the protein stability index was found to be 3.88 ± 0.18 (treatment: DMSO) and 4.01 ± 0.32 (treatment: MLN4924 1 uM, 8 h).
For EMSLPEVQKDKYPEEFSLLKLQTK [SPATS1] the same measures were 4.29 ± 0.28 and 4.04 ± 0.34.
Turning to VCNINKGCGYGCQLHHVVYCFMIA [FUT8], the protein stability index runs as follows: (treatment: DMSO) 2.89 ± 0.42; (treatment: MLN4924 1 uM, 8 h) 3.2 ± 0.68.
The corresponding values for LEGFQAQGHPPSLFPPKAKSNQPK [ATE1] are 5.16 ± 0.19 and 5.19 ± 0.18.
With RLHLRRTTEQHVPEVEVQVKRRRT [SNURF], the protein stability index worked out at 4.75 ± 0.26 (treatment: DMSO) and 4.71 ± 0.35 (treatment: MLN4924 1 uM, 8 h).
As to FEEVLSSTAHASAQSLAGGSRRTK [TPD52L1], the protein stability index is, setting by setting: (treatment: DMSO) 5.16 ± 0.16; (treatment: MLN4924 1 uM, 8 h) 5.11 ± 0.24.
For the sequence QLRCEMEQQNQEYKILLDVKTRLE [KRT17], the protein stability index is 3.63 ± 0.28 (treatment: DMSO) and 3.83 ± 0.098 (treatment: MLN4924 1 uM, 8 h).
Turning to LFLFGYKFSGLYILSFTVIMVGFI [SLC35F2], the protein stability index is, setting by setting: (treatment: DMSO) 3.64 ± 0.12; (treatment: MLN4924 1 uM, 8 h) 3.18 ± 0.41.
Sequence EIFGPVTCVVPFDSEEEVIERANN [ALDH8A1] came in with a protein stability index (treatment: DMSO) of 5.18 ± 0.17 and a protein stability index (treatment: MLN4924 1 uM, 8 h) of 5.17 ± 0.22.
VLKTRFSYAFPKEFPYRMNHILEC [CCNC] yielded a protein stability index (treatment: DMSO) of 2.59 ± 0.58 and a protein stability index (treatment: MLN4924 1 uM, 8 h) of 2.2 ± 0.24.
Consider MDDDFGVVKEEISDDNAKLPCFNG [DVL3], for which the protein stability index reads like this: (treatment: DMSO) 5.18 ± 0.19; (treatment: MLN4924 1 uM, 8 h) 5.21 ± 0.15.
In the case of GLQAQIASSGLTVEVDAPKSQDLA [KRT18], the protein stability index reads like this: (treatment: DMSO) 4.77 ± 0.35; (treatment: MLN4924 1 uM, 8 h) 4.94 ± 0.47.
CEEQKCEEEVFPLAMNYLDRFLAG [CCND2]: the protein stability index reads like this: (treatment: DMSO) 3.82 ± 0.17; (treatment: MLN4924 1 uM, 8 h) 4.05 ± 0.28.
With RNLDGTLGYLLDKETLRLHPDIFL [ZER1], the protein stability index worked out at 2.13 ± 0.27 (treatment: DMSO) and 2.05 ± 0.17 (treatment: MLN4924 1 uM, 8 h).
On to WIQVTSLRIFVWLLLLYFMQVIAI [PHTF1], for which the protein stability index amounted to 3.08 ± 0.43 (treatment: DMSO) and 2.93 ± 0.42 (treatment: MLN4924 1 uM, 8 h).
KVQTVIILGKVILWILHLLLECYI [TMEM192]: the protein stability index reads like this: (treatment: DMSO) 2.5 ± 0.62; (treatment: MLN4924 1 uM, 8 h) 2.35 ± 0.26.
For FTTFRGTELSFLVTTHQPTNLVLP [EDNRA], the protein stability index came out at 2.84 ± 0.74 (treatment: DMSO) and 2.29 ± 0.37 (treatment: MLN4924 1 uM, 8 h).
The sequence VFLPIVVLIFKSILFLPCLRKKIL [STEAP1] registered a protein stability index (treatment: DMSO) of 2.98 ± 0.78 and a protein stability index (treatment: MLN4924 1 uM, 8 h) of 2.98 ± 0.59.
For VAVESMEPNNIVVLLQTSPYHVDS [TCF25] the same measures were 2.28 ± 0.38 and 2.13 ± 0.4.
In the case of SHRFPEDHDPTIEDAYKIRIRIDD [RIT1], the protein stability index by setting is: (treatment: DMSO) 3.98 ± 0.19; (treatment: MLN4924 1 uM, 8 h) 4.28 ± 0.31.
With RQQVTNHGRGTEVLLEEPLPLETA [ZNF263], the protein stability index is, setting by setting: (treatment: DMSO) 5 ± 0.28; (treatment: MLN4924 1 uM, 8 h) 5.04 ± 0.17.
As for QELDIKKNERLWLLDDSKTWWRVR [NCK2], the protein stability index (treatment: DMSO) came out at 2.37 ± 0.14 and the protein stability index (treatment: MLN4924 1 uM, 8 h) stood at 2.61 ± 0.28.
In the case of AELLKANEIIKKLQGDLKTLMGKL [SASS6], the protein stability index was found to be 2.36 ± 0.59 (treatment: DMSO) and 3.44 ± 0.66 (treatment: MLN4924 1 uM, 8 h).
The corresponding values for KGYPDGVKSIVVKGYNIWTGGPDA [TLE6] are 2.68 ± 0.28 and 2.8 ± 0.49.
For the sequence AALHIDLCKATSPADALQYLLQFA [INTS4], the protein stability index came out at 2.36 ± 0.51 (treatment: DMSO) and 2.29 ± 0.15 (treatment: MLN4924 1 uM, 8 h).
Turning to AKIRAKIPGTGALASAAAAVSGSK [RTN2], the protein stability index amounted to 4.3 ± 0.15 (treatment: DMSO) and 4.64 ± 0.34 (treatment: MLN4924 1 uM, 8 h).
NFKAHVSPHEMLQAVVLCSKKTFQ [USP39]: the protein stability index by setting is: (treatment: DMSO) 2.25 ± 0.25; (treatment: MLN4924 1 uM, 8 h) 2.26 ± 0.3.
In turn, MLSPQRVAAAASRGADDAMESSKP [ATL3] had a protein stability index (treatment: DMSO) of 5.21 ± 0.22 and a protein stability index (treatment: MLN4924 1 uM, 8 h) of 5.25 ± 0.25.
